What is called Km is the concentration of substrate that gives half-maximal velocity.

We go through 3 molecules from patent US7276363B2, “Nucleic acid molecules encoding red and green emitting luciferases” (Toyo Boseki Kabushiki Kaisha, priority 1998, dated 2007).

Substrate in data set [1]: O=C(O)[C@H]1CSC(c2nc3ccc(O)cc3s2)=N1
Briefly: purified protein, by the assay type. Conditions: other: ammonium sulfate fractionated extract, luciferin 0.03-2 mM, 4 mM ATP solution, 8 mM MgSO4, 0.1 M Tris-HCl, pH 8.0, 25° C.

Substrate in data set [2]: Nc1ncnc2c1ncn2[C@@H]1O[C@H](COP(=O)(O)OP(=O)(O)OP(=O)(O)O)[C@@H](O)[C@H]1O
Briefly: KM determination, PhRE luciferase (light intensity in luminometer, Lineweaver-Burk plots). It is filed as biochemical, Phrixothrix hirtus. Conditions: other: ammonium sulfate fractionated extract, ATP 0.1-4 mM, 0.5 mM luciferin solution, 8 mM MgSO4, 0.1 M Tris-HCl, pH 8.0, 25° C. The procedure:
(§1) Liquid cultures of SOLR cells carrying luciferase insert containing pBl were grown on LB/amp (50 μg/mL) medium at 37° C. with shaking overnight. The preculture (1/100 vol) was then inoculated in LB/amp (50 μg/mL) in the presence of 1 mM IPTG and incubated at 23° C. during 24 h (OD600=1.8). The cells were harvested by centrifugation at 3000 rpm during 10 min at 4° C., and the pellet was resuspended in cold extraction buffer (0.1 M sodium phosphate buffer, pH 7.5, containing 2 mM EDTA, 1 mM DTT, and 1% Triton X-100). Lysozyme was added to the final concentration of 1 mg/mL and the suspension incubated 15 min at 0° C. and frozen at −80° C. during 15 min. The lysate was centrifuged at 12000 g at 4° C. during 15 min. The supernatant was then fractionated with ammonium sulfate. The fraction precipitated between 55% and 70% saturation was dissolved in cold extraction buffer and stored at −20° C. in the presence of glycerol 15%, to maintain the activity.
(§2) Measurements of light intensities for KM determinations were made using the luminometer described above. […] The assays were carried out at 25° C. Each point of the Michaelis-Menten curve was assayed in quadruplicate. The KM values were estimated by Lineweaver-Burk plots of the reciprocal of light intensities versus […].

A short description of data set [3]: Luciferase assays: luminometer light output and time course. Type of data set: biochemical. To be noted: for total light output: in vivo and in vitro assays of IPTG-induced colonies, corrected for spectral photosensitivity. The procedure: The activity levels were measured using a Luminescencer AB-2000 luminometer (Atto; Tokyo, Japan) by integration of total light emitted. The assay consisted of the addition of 50 μL of standard solution (2 mM ATP, 0.5 mM D-luciferin, 4 mM MgSO4 in 0.1 M Tris-HCl buffer, pH 8.0) to 10 μL of luciferase-containing extracts at 25° C. In vivo light intensities were measured after adding 50 μL of 0.5 mM D-luciferin in 0.1 M sodium citrate buffer pH 5.0 to 10 μL of bacterial suspension into a microtiter plate.

Substrate in data set [4]: Nc1ncnc2c1ncn2[C@@H]1O[C@H](COP(=O)(O)OP(=O)(O)OP(=O)(O)O)[C@@H](O)[C@H]1O
Briefly: KM determination, PvGR luciferase (light intensity in luminometer, Lineweaver-Burk plots). Type of data set: biochemical, Phrixothrix vivianii. To be noted: other: ammonium sulfate fractionated extract, ATP 0.1-4 mM, 0.5 mM luciferin solution, 8 mM MgSO4, 0.1 M Tris-HCl, pH 8.0, 25° C. The protocol: as §1, §2

B1: Phrixothrix hirtus red light-emitting luciferase PhRE, recombinant, wild type, SEQ ID NO: 4 (Phrixothrix hirtus) (protein)
chain: MEEENIVNGDRPRDLVFPGTAGLQLYQSLYKYSYITDGIIDAHTNEVISYAQIFETSCRLAVSLEKYGLDHNNVVAICSENNIHFFGPLIAALYQGIPMATSNDMYTEREMIGHLNISKPCLMFCSKKSLPFILKVQKHLDFLKKVIVIDSMYDINGVECVFSFVSRYTDHAFDPVKFNPKEFDPLERTALIMTSSGTTGLPKGVVISHRSITIRFVHSSDPIYGTRIAPDTSILAIAPFHHAFGLFTALAYFPVGLKIVMVKKFEGEFFLKTIQNYKIASIVVPPPIMVYLAKSPLVDEYNLSSLTEIACGGSPLGRDIADKVAKRLKVHGILQGYGLTETCSALILSPNDRELKKGAIGTPMPYVQVKVIDINTGKALGPREKGEICFKSQMLMKGYHNNPQATRDALDKDGWLHTGDLGYYDEDRFIYVVDRLKELIKYKGYQVAPAELENLLLQHPNISDAGVIGIPDEFAGQLPSACVVLEPGKTMTEKEVQDYIAELVTTTKHLRGGVVFIDSIPKGPTGKLMRNELRAIFAREQAKSKL
Regarding B1, the results for the Km in data set [1] and in data set [2] were 20 µM and 240 µM, respectively.

B2: PhRE: recombinant red light-emitting luciferase of Phrixothrix hirtus head lanterns, 546 amino acid residues (protein, listed as Phrixothrix hirtus)
chain: MEEENVVNGDRPRDLVFPGTAGLQLYQSLYKYSYITDGIIDAHTNEVISYAQIFETSCRLAVSLEKYGLDHNNVVAICSENNIHFFGPLIAALYQGIPMATSNDMYTEREMIGHLNISKPCLMFCSKKSLPFILKVQKHLDFLKRVIVIDSMYDINGVECVFSFDSRNTDHAFDPVKFNPKEFDPLERTALIMTSSGTTGLPKGVVISHRSITIRFVHSSDPIYGTRIAPDTSILAIAPFHHAFGLFTALAYFPVGLKIVMVKKFEGEFFLKTIQNYKIASIVVPPPIMVYLAKSPLVDEYNCSSLTEIASGGSPLGRDIADKVAKRLKVHGILQGYGLTETCSALILSPNDRELKKGAIGTPMPYVQVKVIDINTGKALGPREKGEICFKSQMLMKGYHNNPQATRDALDKDGWLHTGDLGYYDEDRFIYVVDRLKELIKYKGYQVAPAELENLLLQHPNISDAGVIEFRTNLLVNYLSACVVLEPGKTMTEKEVQDYIAELVTTTKHLRGGVVFIDSIPKGPTGKLMRNELRAIFAREQAKSKL
With B2, the “rise time to the peak of intensity and decay rate of in vitro bioluminescence reaction” value in data set [3] (compared with PvGR, results not shown) is given as “faster”. The total light output entry in data set [3] is recorded as “nearly the same values”.

B3: Phrixothrix vivianii green light-emitting luciferase PvGR, recombinant, wild type, SEQ ID NO: 2 (Phrixothrix vivianii) (protein)
chain: MEEENIRHGERPRDIVHPGSAGQQLYQSLYKFASFPEAIIDAHTNEVISYAQIFETSCRLAVSIEQYGLNENNVVGVCSENNINFFNPVLAALYLGIPVATSNDMYTDGELTGHLNISKPTIMFSSKKALPLILRVQQNLSFIKKVVVIDSMYDINGVECVSTFVARYTDHTFDPLSFTPKDFDPLEKIALIMSSSGTTGLPKGVVLSHRSLTIRFVHSRDPIYGTRTVPQTSILSLVPFHHAFGMFTTLSYFVVGLKVVMLKKFEGALFLKTIQNYKIPTIVVAPPVMVFLAKSPLVDQYDLSSLTEVATGGAPLGKDVAEAVAKRLKLPGIIQGYGLTETCCAVMITPHNAVKTGSTGRPLPYIKAKVLDNATGKALGPGERGEICFQSEMIMKGYYNNPEATIDTIDKDGWLHSGDIGYYDEDGNFFIVDRLKELIKYKGYQVAPAELENLLLQHPSIADAGVTGVPDEFGGQLPAACVVLESGKTLTEKEVQDFIAAQVTPTKHLRGGVVFVDSIPKGPTGKLIRKELREIFAQRAPKSKL
For B3, the total light output entry in data set [3] was “nearly the same values”. Moreover, the Km is 150 µM in data set [1] and 350 µM in data set [4].
